Molecular target: PD-L1 on CT26 murine colon cancer cells (mouse (CT26)) (UniProt Q9EP73)
Assay: flow cytometry on CT26 cells
Conditions: apparent Kd on whole cells, PBS, room temperature, 30 min, 2x10^5 CT26 cells in 250 uL, three PBS washes, Y = Bmax X/(Kd + X), n = 2

Sequence of PD-L1 on CT26 murine colon cancer cells (mouse (CT26)) (Q9EP73 19-290): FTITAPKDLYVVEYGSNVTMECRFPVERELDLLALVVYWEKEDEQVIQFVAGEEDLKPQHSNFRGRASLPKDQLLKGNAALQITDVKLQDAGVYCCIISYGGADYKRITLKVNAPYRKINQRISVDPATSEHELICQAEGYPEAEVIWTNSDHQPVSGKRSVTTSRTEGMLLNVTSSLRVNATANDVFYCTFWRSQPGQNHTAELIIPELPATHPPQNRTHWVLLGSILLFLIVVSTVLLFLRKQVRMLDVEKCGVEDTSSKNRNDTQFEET

| Sequence | Kd [nM] | Kd (tetravalent, first nt at 5' end of each strand phosphorothioate in some Apt-HJ, unclear for binding assay) [nM] |
| --- | --- | --- |
| ACGGGCCACATCAACTCATTGATAGACAATGCGTCCACTGCCCGT [free PD-L1 aptamer (Apt)] | 283 |  |
| CGGCGATCCGGCCATAGTGGATTGCGGGCCAGTGAAAAAAACGGGCCACATCAACTCATTGATAGACAATGCGTCCACTGCCCGT / CTCACTGGCCCGCAATCCTGAGCACGTGGCTGACGAAAAAACGGGCCACATCAACTCATTGATAGACAATGCGTCCACTGCCCGT / CCGTCAGCCACGTGCTCACCGAATGCTGCGCAACCAAAAAACGGGCCACATCAACTCATTGATAGACAATGCGTCCACTGCCCGT / CGGTTGCGCAGCATTCGGACTATGGCCGGATCGCCAAAAAACGGGCCACATCAACTCATTGATAGACAATGCGTCCACTGCCCGT [Apt-HJ (tetravalent aptamer Holliday junction)] |  | 145 |

Reference: article PMC7921949
